Test results taken from the Human Domainome abundance scans (Beltran et al. 2025).
± gives the uncertainty stated by the source.

B1: E3 ubiquitin-protein ligase NEDD4, residues 836 to 881; numbered along this chain, P46934 (parent)
chain: EIEQGFLPKGWEVRHAPNGRPFFIDHNTKTTTWEDPRLKIPAHLRG

Variants of: B1
Assay: abundance fitness (aPCA) (normalised: wild type 0, dead -1); higher = more abundant; growth selection in yeast, the domain comes from the species named
Conditions: Homo sapiens

Abundance fitness of substitutions, site by site:
R37: F -0.672 ± 0.14, K -0.758 ± 0.11
T32: V -0.456 ± 0.085, Y -0.564 ± 0.07, A -0.779 ± 0.16, E -0.655 ± 0.048, L -0.85 ± 0.1, F -0.574 ± 0.042, C -0.538 ± 0.12, R -0.648 ± 0.044, Q 0.038 ± 0.082, G -0.619 ± 0.078, S -0.115 ± 0.05, M -0.705 ± 0.1, D -1.05 ± 0.28, K -0.775 ± 0.046, I -0.471 ± 0.14, H -0.033 ± 0.087, W -0.807 ± 0.097
D25: C -0.447 ± 0.046, E -0.351 ± 0.13, R -0.682 ± 0.067, M -1.15 ± 0.25, V -0.981 ± 0.061, T -0.94 ± 0.23, I -0.792 ± 0.34, F -1.04 ± 0.22, N -0.261 ± 0.091, H -0.394 ± 0.16, L -0.922 ± 0.099, Q -0.951 ± 0.25, W -0.86 ± 0.17, A -0.848 ± 0.049, S -0.84 ± 0.061, G -0.836 ± 0.045, Y -0.768 ± 0.21
R20: Q 0.137 ± 0.051, D -0.212 ± 0.083, E -0.035 ± 0.055, C -0.278 ± 0.05, S -0.087 ± 0.05, W -0.946 ± 0.14, K 0.16 ± 0.046, Y -0.577 ± 0.1, A 0.016 ± 0.086, G -0.917 ± 0.12, F -0.78 ± 0.1, N -0.271 ± 0.043, M -0.052 ± 0.052, V -0.105 ± 0.051, H -0.064 ± 0.071, T -0.207 ± 0.07, I -0.257 ± 0.051, L -0.223 ± 0.036, P -0.857 ± 0.17
T30: N -0.566 ± 0.11, Q -0.216 ± 0.058, F -0.466 ± 0.033, M -0.206 ± 0.073, S -0.136 ± 0.051, I -0.056 ± 0.065, K -0.133 ± 0.073, H 0.276 ± 0.087, Y -0.818 ± 0.14, V -0.202 ± 0.039, G -0.595 ± 0.055, W -1.38 ± 0.28, E -0.206 ± 0.11, L -0.297 ± 0.04, A -0.368 ± 0.075, P -0.961 ± 0.19, R -0.2 ± 0.053, D -0.347 ± 0.085
W33: A -0.365 ± 0.056, N -0.431 ± 0.055, L -0.433 ± 0.062, E -0.221 ± 0.067, Q -0.337 ± 0.045, V -0.243 ± 0.05, S -0.307 ± 0.041, C -0.653 ± 0.13, R -0.506 ± 0.047, K -0.462 ± 0.09, D -0.484 ± 0.13, G -0.372 ± 0.047, F -0.142 ± 0.066
T31: G -0.398 ± 0.036, Q -0.158 ± 0.13, A -0.004 ± 0.044, K -0.572 ± 0.12, S 0.006 ± 0.042, M -0.234 ± 0.052, P -0.901 ± 0.081, L -0.356 ± 0.035, C -0.064 ± 0.054, F -0.42 ± 0.085, H -0.578 ± 0.083, Y -0.511 ± 0.09, E -0.44 ± 0.083, D -0.576 ± 0.11, V -0.185 ± 0.047, N -0.727 ± 0.15, W -0.311 ± 0.071
D35: V -0.762 ± 0.085, A -0.216 ± 0.081, W -0.849 ± 0.043, L -0.623 ± 0.055, S -0.691 ± 0.067, Y -0.906 ± 0.24, K -0.814 ± 0.078, G -0.593 ± 0.048, M -0.734 ± 0.16, H -0.418 ± 0.14, T -0.84 ± 0.15, E -0.795 ± 0.11, N -0.979 ± 0.18, I -0.895 ± 0.14, P -0.582 ± 0.12, R -0.554 ± 0.044
E34: K -0.369 ± 0.11, A -0.182 ± 0.054, M -0.054 ± 0.075, S -0.163 ± 0.039, T -0.37 ± 0.088, P -1.08 ± 0.24, L -0.155 ± 0.053, G -0.51 ± 0.066, R -0.307 ± 0.034, V -0.169 ± 0.047, H -0.172 ± 0.041, Q -0.345 ± 0.11, Y -0.272 ± 0.077, C -0.268 ± 0.071, D -0.312 ± 0.11, W -0.306 ± 0.049
N27: C -0.405 ± 0.062, A -0.295 ± 0.057, F -0.189 ± 0.066, M -0.409 ± 0.074, T -0.091 ± 0.048, I -0.105 ± 0.046, K -0.168 ± 0.045, Y -0.593 ± 0.047, S -0.302 ± 0.05, D -0.12 ± 0.088, W -0.827 ± 0.12, P -0.935 ± 0.16, L -0.417 ± 0.053, H -0.543 ± 0.11, Q -0.364 ± 0.036, G -0.382 ± 0.033
T28: V -0.78 ± 0.055, Y -0.548 ± 0.12, H -0.338 ± 0.073, L -0.341 ± 0.049, A -0.383 ± 0.055, G -0.187 ± 0.041, I -0.901 ± 0.16, E -0.218 ± 0.069, K -0.251 ± 0.042, P -0.823 ± 0.066, F -0.776 ± 0.14, N 0.035 ± 0.067, D -0.327 ± 0.091, W -0.971 ± 0.071, M -0.487 ± 0.038, S -0.201 ± 0.048
